According to doi:10.1101/2020.09.15.297887:

Target: PARP1 (UniProt P09874 1-1014)
Test: fluorescence polarization

Sequence of PARP1 (P09874 whole entry): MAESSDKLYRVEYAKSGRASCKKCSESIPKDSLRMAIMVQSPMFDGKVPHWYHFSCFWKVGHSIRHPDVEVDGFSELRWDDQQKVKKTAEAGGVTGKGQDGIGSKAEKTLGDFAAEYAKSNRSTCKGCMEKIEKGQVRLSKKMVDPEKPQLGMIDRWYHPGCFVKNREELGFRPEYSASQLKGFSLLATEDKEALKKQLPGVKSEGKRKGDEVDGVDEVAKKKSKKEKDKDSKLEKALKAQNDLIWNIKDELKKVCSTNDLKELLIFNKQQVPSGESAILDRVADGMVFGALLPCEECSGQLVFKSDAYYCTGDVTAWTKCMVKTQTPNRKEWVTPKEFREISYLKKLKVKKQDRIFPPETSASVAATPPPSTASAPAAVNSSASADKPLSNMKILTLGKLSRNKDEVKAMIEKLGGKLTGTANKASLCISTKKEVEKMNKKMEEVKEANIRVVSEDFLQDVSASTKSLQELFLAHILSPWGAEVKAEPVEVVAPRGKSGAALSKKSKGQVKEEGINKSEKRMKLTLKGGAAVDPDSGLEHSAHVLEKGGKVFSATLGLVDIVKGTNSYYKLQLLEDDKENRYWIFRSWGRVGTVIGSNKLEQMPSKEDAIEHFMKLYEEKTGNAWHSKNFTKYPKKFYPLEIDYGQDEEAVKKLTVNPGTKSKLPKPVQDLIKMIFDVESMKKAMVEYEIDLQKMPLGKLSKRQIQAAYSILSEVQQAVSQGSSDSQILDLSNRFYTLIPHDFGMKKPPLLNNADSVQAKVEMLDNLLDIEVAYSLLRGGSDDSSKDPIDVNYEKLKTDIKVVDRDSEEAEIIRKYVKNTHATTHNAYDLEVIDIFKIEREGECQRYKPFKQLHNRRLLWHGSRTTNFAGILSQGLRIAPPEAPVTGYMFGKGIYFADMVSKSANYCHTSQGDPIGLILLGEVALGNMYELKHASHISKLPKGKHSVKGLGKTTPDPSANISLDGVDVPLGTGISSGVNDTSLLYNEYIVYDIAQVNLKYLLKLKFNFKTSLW

In the case of GCTGAGCTTCTGGTGAAGCTCAGCTCGCGGCAGCTGGTGCTGCCGCGA (structured_DNA, internal fluorescein-dT (iFluorT) at position 8) [DNA dumbbell with single-strand break], the Kd is reported as 71 nM.
